The target of one test is HLA B*0702 (human). Put plainly: competition with radiolabeled probe peptide on purified HLA.
In a further test the target is HLA DRB1*0101 (human). Put plainly: competition with radiolabeled probe peptide, purified MHC.

What is called IC50 is the midpoint of a concentration-inhibition curve. Read a low IC50 as greater potency. Regarding NS4B2296-2305 (peptide), the IC50 with HLA B*0702 (human) is greater than 1000 nM.

For the substance “NS52967-2981 (peptide; other documents disagree on this pair)”, the IC50 with HLA DRB1*0101 (human) is 48 nM.
